[ ]: non-standard residue; d: D form. The star is where a group is joined. dPhe(4-NO2) = N[C@H](Cc1ccc([N+](=O)[O-])cc1)C(=O)O; Benzenesulfonyl = O=S(=O)(c1ccccc1)*; d(hPhe) = N[C@H](CCc1ccccc1)C(=O)O; d2Thi = N[C@H](Cc1cccs1)C(=O)O; NMeNle = CCCC[C@H](NC)C(=O)O; PyrProp = pyridinepropionyl; Tos = Cc1ccc(S(=O)(=O)*)cc1; Nle = CCCC[C@H](N)C(=O)O
target: melanocortin-1 receptor (MC-1r) on murine melanocytes (line S91 Cloudman) (murine) (UniProt Q01727); experiment: cell-based or functional assay
Sequence (Q01727 whole entry): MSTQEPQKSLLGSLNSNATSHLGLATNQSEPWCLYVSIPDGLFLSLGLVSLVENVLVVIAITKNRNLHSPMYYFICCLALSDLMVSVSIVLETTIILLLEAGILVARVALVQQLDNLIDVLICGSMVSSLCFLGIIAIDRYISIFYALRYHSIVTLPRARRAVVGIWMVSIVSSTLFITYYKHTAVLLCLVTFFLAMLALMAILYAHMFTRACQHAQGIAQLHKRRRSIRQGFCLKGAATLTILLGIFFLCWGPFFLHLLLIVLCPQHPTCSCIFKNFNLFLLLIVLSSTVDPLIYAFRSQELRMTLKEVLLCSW

cAMP production (as % of α-MSH)	Binder
100 % of α-MSH	Tos-[Nle]AH[dF]RW-NH2 [Compound No. 5 in the Table, Tos-Nle-Ala-His-DPhe-Arg-Trp-NH2]
80 % of α-MSH	Ac-[Nle]AH[dF]RW-NH2 [Compound No. 1 in the Table, Ac-Nle-Ala-His-DPhe-Arg-Trp-NH2]
70 % of α-MSH	Benzenesulfonyl-[Nle]AH[dF]RW-NH2 [Compound No. 4 in the Table, BzlSO2-Nle-Ala-His-DPhe-Arg-Trp-NH2]
55 % of α-MSH	Benzenesulfonyl-[Nle]AH[dF]KW-NH2 (SMILES CCCC[C@H](NS(=O)(=O)c1ccccc1)C(=O)N[C@@H](C)C(=O)N[C@@H](Cc1c[nH]cn1)C(=O)N[C@H](Cc1ccccc1)C(=O)N[C@@H](CCCCN)C(=O)N[C@@H](Cc1c[nH]c2ccccc12)C(N)=O) [Compound No. 6 in the Table, BzlSO2-Nle-Ala-His-DPhe-Lys-Trp-NH2]
55 % of α-MSH	Ac-[NMeNle]AH[d(hPhe)]RW-NH2 [Compound No. 13 in the Table, Ac-MeNle-Ala-His-DHomoPhe-Arg-Trp-NH2]
45 % of α-MSH	Ac-[Nle]AH[d(hPhe)]RW-NH2 [Compound No. 14 in the Table, Ac-Nle-Ala-His-DHomoPhe-Arg-Trp-NH2]
10 % of α-MSH	Ac-[Nle]AH[d2Thi]RW-NH2 [Compound No. 3 in the Table, Ac-Nle-Ala-His-DThi-Arg-Trp-NH2]
150 % of α-MSH	PyrProp-[Nle]AH[dPhe(4-NO2)]RW-NH2 [Compound No. 11 in the Table, PyrProp-Nle-Ala-His-DpNO2Phe-Arg-Trp-NH2]
40 % of α-MSH	Ac-[Nle]AH[dF]KW-NH2 (SMILES CCCC[C@H](NC(C)=O)C(=O)N[C@@H](C)C(=O)N[C@@H](Cc1c[nH]cn1)C(=O)N[C@H](Cc1ccccc1)C(=O)N[C@@H](CCCCN)C(=O)N[C@@H](Cc1c[nH]c2ccccc12)C(N)=O) [Compound No. 2 in the Table, Ac-Nle-Ala-His-DPhe-Lys-Trp-NH2]

— patent US7268108
